From publication PMC13219714, “μ₃-Oxo nucleophile formation enables efficient SN2 hydrolysis at the trinuclear metal center in inorganic pyrophosphatase” (Communications Chemistry, 2026) come the findings set out here.

Data set [1] has as its target T1, ShPPase (Family II inorganic pyrophosphatase from Shewanella sp. AS-11) (Shewanella sp. AS-11, UniProt L8AXY8).
T1 construct: gene ppia; recombinant from pET16b in E. coli BL21(DE3); purified as previously described
T1 sequence (L8AXY8 2-308): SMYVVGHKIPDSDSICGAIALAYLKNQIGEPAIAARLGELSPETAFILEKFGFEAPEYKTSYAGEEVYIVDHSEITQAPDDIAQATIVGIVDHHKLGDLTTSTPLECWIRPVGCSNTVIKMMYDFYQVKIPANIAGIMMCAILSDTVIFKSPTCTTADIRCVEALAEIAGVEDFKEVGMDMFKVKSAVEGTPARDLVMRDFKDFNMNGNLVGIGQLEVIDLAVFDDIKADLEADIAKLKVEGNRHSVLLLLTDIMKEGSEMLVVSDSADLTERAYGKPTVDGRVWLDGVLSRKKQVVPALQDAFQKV
The data set is described as follows: Zn K-edge XANES / EXAFS. It counts as binding. The note with it: Zn2+-ShPPase 1.1 mM, 0.1 M PNP, 0.1 M MgCl2, pH 7.5; active site, trinuclear metal center.

Substrate in data set [2]: O=P(O)(O)OP(=O)(O)O
The experiment in a line: molybdenum blue phosphate release. The data set is classed as biochemical, Shewanella sp. AS-11. Conditions: Zn2+-activated enzyme, 5 mM MgCl2, 50 mM KCl, 100 mM Tris-HCl pH 7.5, 25 °C. From the text:
molybdenum blue phosphate release on ShPPase (Family II inorganic pyrophosphatase from Shewanella sp. AS-11)

Setting [3] is: primers for D14N and D14A appear exchanged.

`O=P(O)(O)NP(=O)(O)O` [PNP, imidodiphosphate]: the “Zn K-edge XANES / EXAFS” value in data set [1] is listed as “Zn²⁺ ions are predominantly five-coordinate in the substrate-free form, but transition to six-coordinate upon PNP binding”.

B1: ShPPase (Family II inorganic pyrophosphatase from Shewanella sp. AS-11) (Shewanella sp. AS-11) (protein)
chain: SMYVVGHKIPDSDSICGAIALAYLKNQIGEPAIAARLGELSPETAFILEKFGFEAPEYKTSYAGEEVYIVDHSEITQAPDDIAQATIVGIVDHHKLGDLTTSTPLECWIRPVGCSNTVIKMMYDFYQVKIPANIAGIMMCAILSDTVIFKSPTCTTADIRCVEALAEIAGVEDFKEVGMDMFKVKSAVEGTPARDLVMRDFKDFNMNGNLVGIGQLEVIDLAVFDDIKADLEADIAKLKVEGNRHSVLLLLTDIMKEGSEMLVVSDSADLTERAYGKPTVDGRVWLDGVLSRKKQVVPALQDAFQKV
notes: recombinant from pET16b in E. coli BL21(DE3); purified as previously described
For the molecule B1, in data set [2], the Michaelis constant (Km) turned out to be 79 ± 18 µM, the turnover number (kcat) was determined as 99.8 ± 5.5 s⁻¹ and the catalytic efficiency (kcat/Km) worked out at 1.26e+06 M⁻¹ s⁻¹.

B2: ShPPase (Family II inorganic pyrophosphatase from Shewanella sp. AS-11) (Shewanella sp. AS-11; D14A) (protein)
chain: SMYVVGHKIPDSASICGAIALAYLKNQIGEPAIAARLGELSPETAFILEKFGFEAPEYKTSYAGEEVYIVDHSEITQAPDDIAQATIVGIVDHHKLGDLTTSTPLECWIRPVGCSNTVIKMMYDFYQVKIPANIAGIMMCAILSDTVIFKSPTCTTADIRCVEALAEIAGVEDFKEVGMDMFKVKSAVEGTPARDLVMRDFKDFNMNGNLVGIGQLEVIDLAVFDDIKADLEADIAKLKVEGNRHSVLLLLTDIMKEGSEMLVVSDSADLTERAYGKPTVDGRVWLDGVLSRKKQVVPALQDAFQKV
notes: as for B1
For B2, in data set [2], the Km worked out at 179 ± 37 µM, the catalytic constant (kcat) is 0.019 ± 0.001 s⁻¹ and the specificity constant (kcat/Km) turned out to be 110 M⁻¹ s⁻¹.

B3: ShPPase (Family II inorganic pyrophosphatase from Shewanella sp. AS-11) (Shewanella sp. AS-11; D14N) (protein)
chain: SMYVVGHKIPDSNSICGAIALAYLKNQIGEPAIAARLGELSPETAFILEKFGFEAPEYKTSYAGEEVYIVDHSEITQAPDDIAQATIVGIVDHHKLGDLTTSTPLECWIRPVGCSNTVIKMMYDFYQVKIPANIAGIMMCAILSDTVIFKSPTCTTADIRCVEALAEIAGVEDFKEVGMDMFKVKSAVEGTPARDLVMRDFKDFNMNGNLVGIGQLEVIDLAVFDDIKADLEADIAKLKVEGNRHSVLLLLTDIMKEGSEMLVVSDSADLTERAYGKPTVDGRVWLDGVLSRKKQVVPALQDAFQKV
notes: as for B1
For B3, in data set [2] (setting [3]), the Km was determined as 100 ± 20 µM, the kcat was 0.034 ± 0.002 s⁻¹ and the catalytic efficiency (kcat/Km) amounted to 340 M⁻¹ s⁻¹.

The term Km denotes the concentration of substrate that gives half-maximal velocity. In general, kcat refers to the maximal rate divided by the concentration of active sites. The kcat/Km is the second-order rate constant that governs catalysis at low substrate concentration.
